Assays:
hRARα = target: T1, hRARα (human, UniProt P10276 1-462); test: in vitro DNA-binding (gel shift) with in vitro translated proteins and a cocktail of response elements
T1 construct: also called human RAR alpha
T1 sequence (looked up): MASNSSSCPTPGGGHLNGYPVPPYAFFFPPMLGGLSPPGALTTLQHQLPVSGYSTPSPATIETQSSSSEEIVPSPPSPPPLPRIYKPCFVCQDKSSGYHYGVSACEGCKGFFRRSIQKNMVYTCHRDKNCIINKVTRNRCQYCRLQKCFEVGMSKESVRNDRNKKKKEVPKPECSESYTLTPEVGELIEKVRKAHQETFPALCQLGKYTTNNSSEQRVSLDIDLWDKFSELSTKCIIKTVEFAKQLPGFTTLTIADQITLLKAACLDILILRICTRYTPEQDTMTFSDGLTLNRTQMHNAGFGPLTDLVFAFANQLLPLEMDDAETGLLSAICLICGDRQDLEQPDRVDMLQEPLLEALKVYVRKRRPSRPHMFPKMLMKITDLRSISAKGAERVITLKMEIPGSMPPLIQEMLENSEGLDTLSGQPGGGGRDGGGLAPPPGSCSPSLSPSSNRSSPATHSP

hRXRα = target: T2, hRXRα (human, UniProt P19793 1-462); test: in vitro DNA-binding (gel shift) with in vitro translated proteins
T2 construct: In vitro transcribed and translated protein used in gel shift assays with XOR-6; also called human RXR alpha
T2 sequence (looked up): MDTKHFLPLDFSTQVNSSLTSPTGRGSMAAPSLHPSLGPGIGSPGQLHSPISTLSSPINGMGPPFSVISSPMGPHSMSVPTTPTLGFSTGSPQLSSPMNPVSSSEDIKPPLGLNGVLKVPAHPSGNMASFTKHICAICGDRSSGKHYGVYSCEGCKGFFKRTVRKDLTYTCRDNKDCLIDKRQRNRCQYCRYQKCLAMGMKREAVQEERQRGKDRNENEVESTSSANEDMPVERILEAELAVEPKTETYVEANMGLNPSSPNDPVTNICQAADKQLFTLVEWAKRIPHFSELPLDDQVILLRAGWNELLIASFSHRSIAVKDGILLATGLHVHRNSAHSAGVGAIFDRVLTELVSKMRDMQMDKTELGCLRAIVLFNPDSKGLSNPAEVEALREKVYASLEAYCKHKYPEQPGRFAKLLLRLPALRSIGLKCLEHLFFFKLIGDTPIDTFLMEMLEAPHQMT
Protocol: DNA-binding analysis was performed using in vitro transcribed, translated proteins (Perlmann et al., 1993, supra. oligonucleotides employed have been described previously (see Umesono et al., in Cell 65:1255-1266 (1990) and Perlmann et al., 1993, supra).
Thus, in vitro transcribed and translated proteins were mixed with a cocktail of hormone response elements containing DR0, DR1, PPRE, DR2, MLV-TRE, SPP1, and β-RARE. Thus, XOR-6 and hRXRα proteins were mixed and incubated with radiolabelled response elements. DR-1 through 5 are direct repeats of the sequence […] separated by 1-5 nucleotides. Reaction conditions and gel electrophoresis employed were as described by Perlmann et al., 1993, supra.

B1: XOR-6 (Xenopus Orphan Receptor 6) (receptor)
chain: MWKVQETLVLEEEEEEEDASNSCGTGEDEDDGDPKICRACGDRATGYHFNAMTCEGCKGFFRRAVKRNLRLSCPFQNSCVINKSNRRHCQACRLKKCLDIGMRKELIMSDAAVEQRRALIKRKHKLTKLPPTPPGASLTPEQQHFLTQLVGAHTKTFDFNFTFSKNFRPIRRSSDPTQEPQATSSEAFLMLPHISDLVTYMIKGIISFAKMLPYFKSLDIEDQIALLKGSVAEVSVIRFNTVFNSDTNTWECGPFTYDTEDMFLAGFRQLFLEPLVRIHRMMRKLNVQSEEYAMMAALSIFASYRPGVCDWEKIQKLQEHIALTLKDFIDSQRPPSPQNRLLYPKIMECLTELRTVNDIHSKQLLEIWDIQPDATPLMREVFGSPE
notes: Expressed from pCDG-XOR6 (XOR-6 protein coding region) in CV-1 cells; Full-length, about 386 amino acids; also called full-length XOR-6
binding result (hRARα): no binding
binding result (hRXRα): binds

Source: patent US20030044914A1 (SALK INSTITUTE FOR BIOLOGICAL STUDIES, published 2003)
